Assay [1] concerns the target hIL-4Rα-ECD (wild-type hIL-4Rα extracellular domain with C-terminus his-tag) (human) (UniProt P24394). Put plainly: SPR, Biacore T200, by the methods of Example 2; mean of three experiments. (In general: Surface plasmon resonance follows binding to a sensor surface in real time, without labels.)
Assay [2] deals with human IL-4Rα (Shanghai Novoprotein Technology Co., Ltd) (human) (UniProt P24394). Put plainly: SPR, Biacore T200, antibody captured on protein A, antigen as analyte, 25 C, 1:1 model.

Drawing on patent US20220073631A1, this text covers Kd, koff and kon for 1 molecule.

By Kd is commonly meant the free concentration of one partner at which half of the binding sites on the other are occupied at equilibrium, for simple one-to-one binding. Read a high Kd as a looser complex. In general, koff refers to a measure of how fast the partners let go of each other. As a reminder, the kon is the second-order rate constant of association.

B1: Dupilumab (antibody, INN chains, looked up, V domains shown)
VH: EVQLVESGGGLEQPGGSLRLSCAGSGFTFRDYAMTWVRQAPGKGLEWVSSISGSGGNTYYADSVKGRFTISRDNSKNTLYLQMNSLRAEDTAVYYCAKDRLSITIRPRYYGLDVWGQGTTVTVSS
VL: DIVMTQSPLSLPVTPGEPASISCRSSQSLLYSIGYNYLDWYLQKSGQSPQLLIYLGSNRASGVPDRFSGSGSGTDFTLKISRVEAEDVGFYYCMQALQTPYTFGQGTKLEIKR
B1: in assay [1], the Kd came out at 0.0588 nM, the koff was found to be 4.29e-05 s⁻¹ and the kon stood at 707000 M⁻¹ s⁻¹. Further, in assay [2], the Kd was 0.136 nM, the koff turned out to be 0.00011 s⁻¹ and the on-rate constant (kon) came out at 808000 M⁻¹ s⁻¹.
